Assay results reported in the supplement of paper PMC10567573.

B1: IFRG15 (parent)
chain: INRADYCPECYPDNPANRSLVLPW
B2: MMP1 (parent)
chain: MFFKDRFYMRTNPFYPEVELNFIS

Variants of: B1
Experiment: protein stability index of a GFP-peptide fusion (GPS, HEK-293T) (PSI 1-6); higher = more stable
Details: c terminus: a fixed tail appended
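Note: lentivirally expressed fusions sorted by FACS into six bins by GFP to DsRed ratio, PSI derived from sequencing read proportions per bin multiplied by bin number.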

Protein stability index, by site and new letter:
S19: K 2.14
E9: W 1.58
C7: Q 2.74
P15: D 2.12
P8: H 2.3 | Y 2.48
Y6: A 2.62
Y11: T 2.32
D13: C 1.97
N17: Q 1.79

Variants of: B2
Experiment: as above
Details: c terminus: a fixed tail appended

Protein stability index of substitutions, site by site:
K4: Y 3.55 | P 2.5 | S 3.15 | I 3.25 | W 2.11 | F 3.7 | M 2.3 | G 1.72 | V 1.49 | R 2.56 | Q 4.05 | N 2.26 | H 3.26
F2: A 3.29 | Q 2.26 | H 2.93 | R 4.3 | I 2.59 | M 2.02 | G 3.1 | S 2.72 | L 2.36 | V 2.75 | K 4.48 | N 1.93 | C 3.01 | E 2.98 | P 2.06 | D 2.71 | T 2.29
M9: A 1.27 | W 3.91 | S 3.67 | P 1.93 | I 2.02 | K 2.59 | D 1.75 | F 2.56 | Q 2.65 | G 3.71 | T 2.76 | R 2.1 | E 1.93 | H 1.83 | C 3.4 | L 1.86 | Y 3.12 | V 2.71
D5: T 3.47 | W 1.94 | H 2.78 | M 2.63 | Y 2.38 | E 2.63 | L 2.49 | P 3.51 | G 3.47 | S 2.64 | Q 3.19 | I 2.52 | A 2.8 | C 3.75 | V 2.6 | N 2.77
R10: A 1.52 | P 2.77 | T 2.47 | E 2.37 | C 3.2 | G 2.73 | Q 2.17 | S 3.42 | M 2.88 | H 2.42 | L 2.79 | K 2.74 | D 2.14 | N 3.09
R6: S 2.64 | C 2.09 | M 2.35 | E 2.85 | N 2.96 | F 2.48 | V 3.16 | I 3.27 | Q 3.4 | L 2.39 | T 3.77 | Y 3.35 | G 3.07 | W 2.14 | K 3.46 | H 3.05
M1: H 2.05 | R 2.2 | F 3.03 | C 2.83 | D 2.24 | W 3.52 | S 2.84 | N 1.76 | A 1.89 | V 3.89 | K 2.94 | Y 1.86 | E 2.86 | I 2.17
Y8: Q 2.87 | K 1.99 | G 2.07 | M 2.89 | W 2.96 | F 2.64 | V 3.2 | I 2.73 | P 2.98 | D 2.43 | N 2.17 | S 3.33 | H 2.22 | E 1.89 | A 2.69 | C 3.33 | T 2.23 | R 2.98
F7: V 4.52 | D 1.91 | P 3.98 | M 2.98 | K 2.45 | A 3.4 | R 3.28 | E 3.35 | C 2.32 | H 2.13 | Q 2.06 | L 3.36 | N 1.31 | Y 1.96 | W 3.2
F3: W 3.61 | Y 2.97 | T 2.11 | L 2.29 | D 1.85 | V 2.82 | R 1.55 | I 2.64 | H 1.89 | K 1.83 | E 1.5 | P 1.48 | N 1.73 | G 4.14 | S 2.9 | Q 3.42
